Assay results taken from the supplement of paper PMC9112550, “Optimization of the antimicrobial peptide Bac7 by deep mutational scanning” (BMC Biology, 2022).

Tested on: Escherichia coli TOP10
Assay: shrunken log2 fold change of peptide-encoding DNA abundance (4.5 h post-induction vs induction); higher = less antimicrobial activity (less host growth inhibition)
Settings: time post-induction: 4.5 h; library: site-saturation at positions 5, 18, 19, 20
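Further: peptides expressed intracellularly from a pBAD plasmid library in pooled LB shake-flask culture, induced with 0.3% L-arabinose, DNA abundance read by NGS, three biological replicates, DESeq2 with apeglm shrinkage.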

Sequence	shrunken log2 fold change
RRIRERPPRLPRPRPRPSCYPRP	-0.941
RRIRERPPRLPRPRPRPSDHPRP	-0.133
RRIRERPPRLPRPRPRPSDPPRP	-0.417
RRIRERPPRLPRPRPRPSECPRP	-0.592
RRIRERPPRLPRPRPRPSFSPRP	-0.765
RRIRERPPRLPRPRPRPSFVPRP	-0.588
RRIRERPPRLPRPRPRPSHYPRP	-0.611
RRIRERPPRLPRPRPRPSIEPRP	-0.37
RRIRERPPRLPRPRPRPSIQPRP	-0.0558
RRIRERPPRLPRPRPRPSKDPRP	-0.664
RRIRERPPRLPRPRPRPSKLPRP	-1.06
RRIRERPPRLPRPRPRPSNIPRP	-0.662
RRIRERPPRLPRPRPRPSQLPRP	-0.127
RRIRERPPRLPRPRPRPSTLPRP	-0.999
RRIRERPPRLPRPRPRPSVHPRP	-0.329
RRIRERPPRLPRPRPRPTCCPRP	-0.0839
RRIRERPPRLPRPRPRPTCFPRP	-0.133
RRIRERPPRLPRPRPRPTCGPRP	0.497
RRIRERPPRLPRPRPRPTCMPRP	-0.0554
RRIRERPPRLPRPRPRPTCPPRP	-0.103
RRIRERPPRLPRPRPRPTDNPRP	-0.841
RRIRERPPRLPRPRPRPTEWPRP	-0.551
RRIRERPPRLPRPRPRPTFTPRP	-0.134
RRIRERPPRLPRPRPRPTGHPRP	-0.0413
RRIRERPPRLPRPRPRPTHFPRP	-0.382

Sequence	shrunken log2 fold change
RRIRERPPRLPRPRPRPTHLPRP	0.229
RRIRERPPRLPRPRPRPTHYPRP	-0.312
RRIRERPPRLPRPRPRPTIHPRP	-0.324
RRIRERPPRLPRPRPRPTINPRP	-0.399
RRIRERPPRLPRPRPRPTKWPRP	0.155
RRIRERPPRLPRPRPRPTMHPRP	-0.229
RRIRERPPRLPRPRPRPTMIPRP	-0.597
RRIRERPPRLPRPRPRPTNIPRP	-0.905
RRIRERPPRLPRPRPRPTNQPRP	-0.414
RRIRERPPRLPRPRPRPTNVPRP	-0.387
RRIRERPPRLPRPRPRPTPRPRP	0.669
RRIRERPPRLPRPRPRPTQVPRP	-0.0607
RRIRERPPRLPRPRPRPTRGPRP	0.0807
RRIRERPPRLPRPRPRPTSDPRP	-0.0201
RRIRERPPRLPRPRPRPTSPPRP	-0.185
RRIRERPPRLPRPRPRPTSQPRP	-0.235
RRIRERPPRLPRPRPRPTWWPRP	0.412
RRIRERPPRLPRPRPRPVAQPRP	-0.201
RRIRERPPRLPRPRPRPVDFPRP	-0.0586
RRIRERPPRLPRPRPRPVGHPRP	-0.000999
RRIRERPPRLPRPRPRPVGVPRP	0.0502
RRIRERPPRLPRPRPRPVIRPRP	-0.305
RRIRERPPRLPRPRPRPVKGPRP	0.0229
RRIRERPPRLPRPRPRPVLNPRP	-0.54
RRIRERPPRLPRPRPRPVMCPRP	0.0654

Sequence	shrunken log2 fold change
RRIRERPPRLPRPRPRPVNFPRP	-0.0265
RRIRERPPRLPRPRPRPVNSPRP	0.0303
RRIRERPPRLPRPRPRPVPAPRP	0.224
RRIRERPPRLPRPRPRPVVKPRP	-0.413
RRIRERPPRLPRPRPRPVVMPRP	0.116
RRIRERPPRLPRPRPRPVWVPRP	0.0145
RRIRERPPRLPRPRPRPVYQPRP	-0.0713
RRIRERPPRLPRPRPRPVYSPRP	-0.409
RRIRERPPRLPRPRPRPWADPRP	-0.00088
RRIRERPPRLPRPRPRPWFRPRP	-0.214
RRIRERPPRLPRPRPRPWHCPRP	-0.0723
RRIRERPPRLPRPRPRPWINPRP	-0.637
RRIRERPPRLPRPRPRPWKQPRP	-0.0582
RRIRERPPRLPRPRPRPWNTPRP	-0.00122
RRIRERPPRLPRPRPRPWNVPRP	-0.0549
RRIRERPPRLPRPRPRPWRDPRP	-0.268
RRIRERPPRLPRPRPRPWSHPRP	-0.168
RRIRERPPRLPRPRPRPWSTPRP	-0.237
RRIRERPPRLPRPRPRPWTPPRP	-0.15
RRIRERPPRLPRPRPRPWTQPRP	-0.298
RRIRERPPRLPRPRPRPWVMPRP	-0.32
RRIRERPPRLPRPRPRPWWTPRP	-0.0694
RRIRERPPRLPRPRPRPWYCPRP	0.00607
RRIRERPPRLPRPRPRPWYDPRP	-0.392
RRIRERPPRLPRPRPRPWYHPRP	-0.588

Sequence	shrunken log2 fold change
RRIRERPPRLPRPRPRPWYKPRP	-0.0738
RRIRERPPRLPRPRPRPWYNPRP	-0.174
RRIRERPPRLPRPRPRPYCKPRP	0.0936
RRIRERPPRLPRPRPRPYDDPRP	-0.341
RRIRERPPRLPRPRPRPYELPRP	-0.563
RRIRERPPRLPRPRPRPYEQPRP	-0.395
RRIRERPPRLPRPRPRPYEVPRP	-0.448
RRIRERPPRLPRPRPRPYGIPRP	-0.00973
RRIRERPPRLPRPRPRPYIHPRP	-0.17
RRIRERPPRLPRPRPRPYIWPRP	0.0553
RRIRERPPRLPRPRPRPYNMPRP	0.0461
RRIRERPPRLPRPRPRPYNTPRP	-0.742
RRIRERPPRLPRPRPRPYPVPRP	-0.224
RRIRERPPRLPRPRPRPYQCPRP	-0.00884
RRIRERPPRLPRPRPRPYQWPRP	0.0039
RRIRERPPRLPRPRPRPYSLPRP	-0.0204
RRIRERPPRLPRPRPRPYSYPRP	-0.0155
RRIRERPPRLPRPRPRPYTKPRP	-0.277
RRIRERPPRLPRPRPRPYVIPRP	-0.172
RRIRERPPRLPRPRPRPYWLPRP	-0.294
RRIRFRPPRLPRPRPRPAADPRP	0.0709
RRIRFRPPRLPRPRPRPAAPPRP	0.745
RRIRFRPPRLPRPRPRPACKPRP	-0.0419
RRIRFRPPRLPRPRPRPACMPRP	-0.263
RRIRFRPPRLPRPRPRPADQPRP	-0.144

Sequence	shrunken log2 fold change
RRIRFRPPRLPRPRPRPAECPRP	-0.16
RRIRFRPPRLPRPRPRPAETPRP	0.0238
RRIRFRPPRLPRPRPRPAFHPRP	-0.228
RRIRFRPPRLPRPRPRPAFSPRP	0.049
RRIRFRPPRLPRPRPRPAGAPRP	0.515
RRIRFRPPRLPRPRPRPAHKPRP	0.225
RRIRFRPPRLPRPRPRPAIRPRP	-0.32
RRIRFRPPRLPRPRPRPAKHPRP	-0.149
RRIRFRPPRLPRPRPRPAKIPRP	0.117
RRIRFRPPRLPRPRPRPAKQPRP	-0.0234
RRIRFRPPRLPRPRPRPALVPRP	0.273
RRIRFRPPRLPRPRPRPANAPRP	-0.0885
RRIRFRPPRLPRPRPRPANFPRP	0.151
RRIRFRPPRLPRPRPRPAPPPRP	0.736
RRIRFRPPRLPRPRPRPARWPRP	0.577
RRIRFRPPRLPRPRPRPASEPRP	0.21
RRIRFRPPRLPRPRPRPASNPRP	-0.479
RRIRFRPPRLPRPRPRPATIPRP	-0.506
RRIRFRPPRLPRPRPRPATVPRP	0.00554
RRIRFRPPRLPRPRPRPAVQPRP	-0.0142
RRIRFRPPRLPRPRPRPAWIPRP	-0.106
RRIRFRPPRLPRPRPRPAWYPRP	-0.103
RRIRFRPPRLPRPRPRPAYNPRP	-0.486
RRIRFRPPRLPRPRPRPCAKPRP	-0.0688
RRIRFRPPRLPRPRPRPCCFPRP	-0.354

Sequence	shrunken log2 fold change
RRIRFRPPRLPRPRPRPCCWPRP	0.148
RRIRFRPPRLPRPRPRPCERPRP	-0.141
RRIRFRPPRLPRPRPRPCFYPRP	-0.394
RRIRFRPPRLPRPRPRPCGEPRP	-0.0646
RRIRFRPPRLPRPRPRPCHFPRP	-0.00959
RRIRFRPPRLPRPRPRPCHKPRP	-0.443
RRIRFRPPRLPRPRPRPCHLPRP	-0.0779
RRIRFRPPRLPRPRPRPCHRPRP	-0.113
RRIRFRPPRLPRPRPRPCKQPRP	0.00386
RRIRFRPPRLPRPRPRPCLWPRP	-0.0174
RRIRFRPPRLPRPRPRPCMGPRP	-0.49
RRIRFRPPRLPRPRPRPCMRPRP	0.0466
RRIRFRPPRLPRPRPRPCNKPRP	-0.249
RRIRFRPPRLPRPRPRPCNTPRP	-0.0482
RRIRFRPPRLPRPRPRPCQDPRP	-0.148
RRIRFRPPRLPRPRPRPCRCPRP	-0.735
RRIRFRPPRLPRPRPRPCRDPRP	-0.274
RRIRFRPPRLPRPRPRPCRRPRP	0.122
RRIRFRPPRLPRPRPRPCTKPRP	-0.229
RRIRFRPPRLPRPRPRPCVIPRP	0.0397
RRIRFRPPRLPRPRPRPCVWPRP	0.0426
RRIRFRPPRLPRPRPRPCWVPRP	-0.331
RRIRFRPPRLPRPRPRPDACPRP	0.0499
RRIRFRPPRLPRPRPRPDALPRP	-0.0978
RRIRFRPPRLPRPRPRPDAWPRP	0.0823
